From paper PMC9886983, “Mechanism of regulation of the Helicobacter pylori Cagβ ATPase by CagZ” (Nature Communications, 2023)

T1: Cagβ-AAD1 (residues 289-488) E396A (Helicobacter pylori 26695, UniProt O25260 289-488, E396A)
T1 construct: Cagβ (HP0524, Cag5) of Helicobacter pylori 26695, residues 289-488, with E396A; also called Cagβ-AAD1_E396A; source: E. coli BL21 star (DE3), purified as the wild type but without TEV protease treatment; not shown: His6, N-terminal, kept; TrxA, N-terminal, kept
T1 sequence: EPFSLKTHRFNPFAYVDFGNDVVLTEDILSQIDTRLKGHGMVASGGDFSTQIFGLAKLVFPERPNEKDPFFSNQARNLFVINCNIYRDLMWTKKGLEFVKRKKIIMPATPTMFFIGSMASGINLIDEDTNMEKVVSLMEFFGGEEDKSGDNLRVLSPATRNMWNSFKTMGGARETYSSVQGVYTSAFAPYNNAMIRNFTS

T2: Cagβ1 (soluble region of Cagβ, residues 166-748) (Helicobacter pylori 26695, UniProt O25260 166-748)
T2 construct: Cagβ (HP0524, Cag5; VirD4 homolog) of Helicobacter pylori 26695, residues 166-748, soluble region without the transmembrane region; also called Cagβ1(166-748); Cagβ-WT; source: E. coli BL21 star (DE3), purified (Ni-NTA, TEV, second Ni-NTA, SEC); not shown: His6, N-terminal, cleaved; TrxA, N-terminal, cleaved
T2 sequence: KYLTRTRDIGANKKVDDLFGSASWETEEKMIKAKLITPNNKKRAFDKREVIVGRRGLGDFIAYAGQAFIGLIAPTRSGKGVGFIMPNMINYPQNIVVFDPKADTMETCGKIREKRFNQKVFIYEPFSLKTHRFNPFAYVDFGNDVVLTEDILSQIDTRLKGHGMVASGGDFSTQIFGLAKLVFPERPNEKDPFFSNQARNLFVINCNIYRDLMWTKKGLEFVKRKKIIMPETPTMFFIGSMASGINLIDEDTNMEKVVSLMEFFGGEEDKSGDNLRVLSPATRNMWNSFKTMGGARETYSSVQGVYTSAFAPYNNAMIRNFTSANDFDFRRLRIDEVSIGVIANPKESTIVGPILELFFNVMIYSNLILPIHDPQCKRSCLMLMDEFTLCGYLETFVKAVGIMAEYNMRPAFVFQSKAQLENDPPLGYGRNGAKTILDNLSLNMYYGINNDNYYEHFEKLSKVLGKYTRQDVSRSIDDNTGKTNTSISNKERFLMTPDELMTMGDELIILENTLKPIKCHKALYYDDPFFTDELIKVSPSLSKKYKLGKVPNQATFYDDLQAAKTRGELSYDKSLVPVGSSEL

T3: Cagβ2 (residues 243-748) (Helicobacter pylori 26695, UniProt O25260 243-748)
T3 construct: Cagβ (HP0524, Cag5) of Helicobacter pylori 26695, residues 243-748; also called Cagβ2 (243-748); source: E. coli BL21 star (DE3), purified (Ni-NTA, TEV, second Ni-NTA, SEC); not shown: His6, N-terminal, cleaved; TrxA, N-terminal, cleaved
T3 sequence: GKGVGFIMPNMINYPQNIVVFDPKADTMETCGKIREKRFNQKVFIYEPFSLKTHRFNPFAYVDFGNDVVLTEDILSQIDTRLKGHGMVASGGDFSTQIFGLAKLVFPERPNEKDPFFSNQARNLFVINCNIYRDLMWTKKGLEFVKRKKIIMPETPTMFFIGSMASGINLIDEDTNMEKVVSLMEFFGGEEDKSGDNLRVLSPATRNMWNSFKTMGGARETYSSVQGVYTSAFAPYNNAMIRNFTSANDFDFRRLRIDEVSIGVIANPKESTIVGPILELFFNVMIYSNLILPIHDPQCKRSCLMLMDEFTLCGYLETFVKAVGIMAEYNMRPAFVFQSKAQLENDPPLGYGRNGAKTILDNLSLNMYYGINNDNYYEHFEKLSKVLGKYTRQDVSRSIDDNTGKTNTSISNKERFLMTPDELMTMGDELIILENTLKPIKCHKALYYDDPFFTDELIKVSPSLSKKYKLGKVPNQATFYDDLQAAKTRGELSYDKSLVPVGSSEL

T4: Cagβ-AAD2 (residues 289-505) (Helicobacter pylori 26695, UniProt O25260 289-505)
T4 construct: Cagβ (HP0524, Cag5) of Helicobacter pylori 26695, residues 289-505, holds the all-alpha domain (AAD); also called Cagβ-AAD2 (289-505); source: E. coli BL21 star (DE3), purified (Ni-NTA, TEV, second Ni-NTA, SEC); not shown: His6, N-terminal, cleaved; TrxA, N-terminal, cleaved
T4 sequence: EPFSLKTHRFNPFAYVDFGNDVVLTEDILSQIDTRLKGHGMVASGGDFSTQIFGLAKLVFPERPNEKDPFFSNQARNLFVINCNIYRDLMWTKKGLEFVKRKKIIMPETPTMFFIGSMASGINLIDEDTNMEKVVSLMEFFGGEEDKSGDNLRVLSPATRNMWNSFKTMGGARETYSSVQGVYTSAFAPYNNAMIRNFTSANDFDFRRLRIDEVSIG

B1: CagZ (residues 2-199), wild type (natural protein)
chain: ELGFNETERQKILDSNKSLMGNANEVRDKFIQNYASSLKDSNDPQDFLRRVQELRINMQKNFISFDVYYNYLNNLVLASYNRCKQEKTFAESTIKNELTLGEFVAEISDNFNNFMCDEVARISDLVASYLPREYLPPFIDGNMMGVAFQILGIDDFGRKLNEIVQDIGTKYIILSKNKTYLTSLERAKLITQLKLNLE
notes: CagZ of Helicobacter pylori 26695, residues 2-199; also called CagZ-WT; source: E. coli BL21 star (DE3), purified (Ni-NTA, TEV, second Ni-NTA, SEC); not shown: His6, N-terminal, cleaved; TrxA, N-terminal, cleaved
B2: Cagβ1 (soluble region of Cagβ, residues 166–748) (domain or fragment)
chain: KYLTRTRDIGANKKVDDLFGSASWETEEKMIKAKLITPNNKKRAFDKREVIVGRRGLGDFIAYAGQAFIGLIAPTRSGKGVGFIMPNMINYPQNIVVFDPKADTMETCGKIREKRFNQKVFIYEPFSLKTHRFNPFAYVDFGNDVVLTEDILSQIDTRLKGHGMVASGGDFSTQIFGLAKLVFPERPNEKDPFFSNQARNLFVINCNIYRDLMWTKKGLEFVKRKKIIMPETPTMFFIGSMASGINLIDEDTNMEKVVSLMEFFGGEEDKSGDNLRVLSPATRNMWNSFKTMGGARETYSSVQGVYTSAFAPYNNAMIRNFTSANDFDFRRLRIDEVSIGVIANPKESTIVGPILELFFNVMIYSNLILPIHDPQCKRSCLMLMDEFTLCGYLETFVKAVGIMAEYNMRPAFVFQSKAQLENDPPLGYGRNGAKTILDNLSLNMYYGINNDNYYEHFEKLSKVLGKYTRQDVSRSIDDNTGKTNTSISNKERFLMTPDELMTMGDELIILENTLKPIKCHKALYYDDPFFTDELIKVSPSLSKKYKLGKVPNQATFYDDLQAAKTRGELSYDKSLVPVGSSEL
notes: Cagβ (HP0524, Cag5; VirD4 homolog) of H. pylori 26695, residues 166-748, the soluble (cytosolic) region; Dynamic hexamer; monomer at low concentration; also called apo-Cagβ1; HP0524; source: E. coli BL21 star (DE3), purified (Ni-NTA, TEV cleavage, second Ni-NTA, SEC); also co-expressed with CagZ-pET-28a and co-purified; not shown: His6, N-terminal, cleaved; TrxA, N-terminal, cleaved

Key:
[1] = biological target: T1, Cagβ-AAD1 (residues 289-488) E396A; assay: ITC; ITC-200, 25 °C, 20 mM Tris pH 8.0, 150 mM NaCl; Cagβ proteins (20 µM) in the cell, CagZ proteins (200 µM) in the syringe; settings: both partners purified
[2] = biological target: T2, Cagβ1 (soluble region of Cagβ, residues …); assay: as above; settings: both partners purified
Cagβ2 (residues 243-748) = biological target: T3, Cagβ2 (residues 243-748); assay: as above; settings: both partners purified
[3] = biological target: T4, Cagβ-AAD2 (residues 289-505); assay: as above; settings: both partners purified
[4] = biological target: the molecule itself; assay: crystal structure; apo-Cagβ1, 2.8 Å; crystals from 35% PEG400, 0.2 M Li2SO4, 0.1 M Tris 8.5 at 285 K; six protomers in the asymmetric unit

Binder | Kd [1] [nM] | Kd [2] [nM] | Kd (Cagβ2 (residues 243-748)) [nM] | Kd [3] [nM] | stoichiometry N [4]
B1 | ~50 | 50 | 20 | 20 | 
B2 |  |  |  |  | 6
